The source of these data is doi:10.1101/639963.

Data set [1] deals with Myosin VI N-terminal tail fragment, large-insert isoform (NMVI_(TAIL(LI))). Description: FRET or BRET. (In general: In BRET a luciferase serves as donor, and the signal depends on an acceptor being close.)
In data set [2] the target is Myosin VI N-terminal tail fragment, non-insert isoform (NMVI_(TAIL(NI))). Description: FRET or BRET.
For data set [3], the target named is Dab2 C-terminal region (residues 649-770) (UniProt P98082). The data set is described as follows: FRET or BRET.
In data set [4] the target is Myosin VI tail, large-insert isoform (MVI_(TAIL(LI))). The data set is described as follows: FRET or BRET.
Data set [5] has as its target nuclear dot protein 52 (NDP52/CALCOCO2) (UniProt Q13137). Description: FRET or BRET.
Data set [6] addresses Myosin VI tail, non-insert isoform (MVI_(TAIL(NI)), aa 814-1253). The data set is described as follows: FRET or BRET.
For data set [7], the target named is T1, Dab2 C-terminal region (myosin VI binding site) (Homo sapiens, UniProt P98082 649-770).
T1 sequence: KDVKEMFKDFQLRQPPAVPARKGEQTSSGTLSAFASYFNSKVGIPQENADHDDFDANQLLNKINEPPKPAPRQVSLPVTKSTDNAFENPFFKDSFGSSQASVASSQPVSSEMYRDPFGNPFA
The data set is described as follows: fluorescence anisotropy. (In fluorescence polarisation assays a small probe gives low polarisation when free and higher when bound to something large.)

Data set [8] addresses Myosin VI CBD (cargo-binding domain; non-insert isoform) (Homo sapiens, UniProt Q9UM54-5 1060-1253). Description: fluorescence anisotropy.

nuclear dot protein 52 (NDP52/CALCOCO2), sequence (Q13137 whole entry, the tested form may be a part, canonical isoform): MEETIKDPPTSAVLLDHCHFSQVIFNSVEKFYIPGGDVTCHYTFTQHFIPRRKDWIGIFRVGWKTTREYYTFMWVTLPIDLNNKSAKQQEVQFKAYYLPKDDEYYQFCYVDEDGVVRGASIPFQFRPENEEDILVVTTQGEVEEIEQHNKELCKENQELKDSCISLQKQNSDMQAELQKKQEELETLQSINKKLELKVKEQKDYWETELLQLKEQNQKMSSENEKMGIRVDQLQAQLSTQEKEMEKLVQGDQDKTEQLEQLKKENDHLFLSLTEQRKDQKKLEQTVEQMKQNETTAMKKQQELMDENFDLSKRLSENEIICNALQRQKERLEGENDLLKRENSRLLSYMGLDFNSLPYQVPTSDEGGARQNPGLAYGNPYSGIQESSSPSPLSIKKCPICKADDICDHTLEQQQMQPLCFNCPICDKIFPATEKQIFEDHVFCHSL

In data set [1], “Myosin VI C-terminal globular cargo binding domain (CBD) (domain or fragment)” gave a Kd with 10 μM Dab2 of 6 µM. Moreover, the Kd with 10 μM NDP52 in data set [2] came out at 4.1 µM.

Turning to “Myosin VI tail, large-insert isoform (MVI_(TAIL(LI))) (domain or fragment)”, the figures for the Kd in data set [3] and in data set [5] were 3.5 µM and 17.3 µM, respectively. The same molecule registered a Kd^DIMER with 20 μM Dab2 in data set [4] of 3.3 µM. The Kd^DIMER with 20 μM NDP52 in data set [4] amounted to 9.3 µM.

As to “Myosin VI tail, non-insert isoform (MVI_(TAIL(NI)), aa 814-1253) (domain or fragment)”, in data set [3], the Kd is 11.6 µM. In data set [6], this molecule came in with a Kd^DIMER with 20 μM Dab2 of 5.3 µM and a Kd^DIMER with 20 μM NDP52 of 4.3 µM. Also, the Kd in data set [5] was 2.1 µM.

B1: ds40 FAM-DNA (40 bp) (dsDNA)
DNA 1: TTAGTTGTTCGTAGTGCTCGTCTGGCTCTGGATTACCCGC
DNA 2: GCGGGTAATCCAGAGCCAGACGAGCACTACGAACAACTAA
On to B1, for which the binding result in data set [7] is “no binding”. The molecule also yielded a Kd in data set [8] of 0.14 µM.

The term Kd denotes the constant that tells how readily two partners part at equilibrium.
